Test results published in article PMC10397247.
Where two headings read alike, the source gives them in different places. Each block holds one binder with its values, some of them ahead of it.

Tests used:
Assay in all cases: two-hybrid library CCmax;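 also: natural log of median RNA to DNA barcode read ratio; higher means stronger binding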
O11-AA = target: T1, O11-AA; details: mean of both orientations
T1 chain: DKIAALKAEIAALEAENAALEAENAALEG

O13-AA = target: T2, O13-AA; details: mean of both orientations
T2 chain: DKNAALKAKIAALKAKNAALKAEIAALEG

4H_BCR = target: T3, 4H_BCR; details: mean of both orientations
T3 chain: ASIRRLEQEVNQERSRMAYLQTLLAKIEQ

4H3587-AA = target: T4, 4H3587-AA
T4 chain: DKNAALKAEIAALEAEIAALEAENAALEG

4H510-AA = target: T5, 4H510-AA; details: mean of both orientations
T5 chain: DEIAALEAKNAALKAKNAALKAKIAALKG

4H3625-AA = target: T6, 4H3625-AA; details: mean of both orientations
T6 chain: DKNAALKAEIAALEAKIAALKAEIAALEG

4H384-AA = target: T7, 4H384-AA
T7 chain: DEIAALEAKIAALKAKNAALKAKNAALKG

4H3905-AA = target: T8, 4H3905-AA; details: mean of both orientations
T8 chain: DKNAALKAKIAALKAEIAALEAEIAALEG

4H_APH = target: T9, 4H_APH; details: mean of both orientations
T9 chain: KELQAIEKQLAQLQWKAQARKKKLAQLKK

4H4038-AA = target: T10, 4H4038-AA; details: mean of both orientations
T10 chain: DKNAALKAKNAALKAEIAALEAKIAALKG

4H43-AA = target: T11, 4H43-AA; details: mean of both orientations
T11 chain: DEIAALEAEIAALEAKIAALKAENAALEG

4H451-AA = target: T12, 4H451-AA; details: mean of both orientations
T12 chain: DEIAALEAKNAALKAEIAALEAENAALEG

GCN2_T = target: GCN2_T
4H337-AA = target: T13, 4H337-AA
T13 chain: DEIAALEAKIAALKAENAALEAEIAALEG

4H3590-AA = target: T14, 4H3590-AA; details: mean of both orientations
T14 chain: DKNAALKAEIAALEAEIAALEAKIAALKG

4H_GCN4 = target: 4H_GCN4
O14-AA = target: T15, O14-AA; details: mean of both orientations
T15 chain: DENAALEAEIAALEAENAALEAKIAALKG

4H63-AA = target: T16, 4H63-AA; details: mean of both orientations
T16 chain: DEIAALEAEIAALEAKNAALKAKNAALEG

4H324-AA = target: T17, 4H324-AA; details: mean of both orientations
T17 chain: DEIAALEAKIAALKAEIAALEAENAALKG

4H446-AA = target: T18, 4H446-AA; details: mean of both orientations
T18 chain: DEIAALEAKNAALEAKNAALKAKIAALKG

4H3619-AA = target: T19, 4H3619-AA; details: mean of both orientations
T19 chain: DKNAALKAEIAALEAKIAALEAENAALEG

4H3777-AA = target: T20, 4H3777-AA; details: mean of both orientations
T20 chain: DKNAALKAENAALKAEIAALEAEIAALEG

4H3915-AA = target: T21, 4H3915-AA; details: mean of both orientations
T21 chain: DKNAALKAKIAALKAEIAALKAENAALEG

4H432-AA = target: T22, 4H432-AA; details: mean of both orientations
T22 chain: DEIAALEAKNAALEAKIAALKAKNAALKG

4H3939-AA = target: T23, 4H3939-AA; details: mean of both orientations
T23 chain: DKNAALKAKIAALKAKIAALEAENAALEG

4H3049-AA = target: T24, 4H3049-AA
T24 chain: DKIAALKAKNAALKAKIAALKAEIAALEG

4H3974-AA = target: T25, 4H3974-AA; details: mean of both orientations
T25 chain: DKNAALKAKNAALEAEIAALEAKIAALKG

4H341-AA = target: T26, 4H341-AA; details: mean of both orientations
T26 chain: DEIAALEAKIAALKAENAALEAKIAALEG

4H3414-AA = target: T27, 4H3414-AA; details: mean of both orientations
T27 chain: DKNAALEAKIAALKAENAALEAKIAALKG

4H464-AA = target: T28, 4H464-AA; details: mean of both orientations
T28 chain: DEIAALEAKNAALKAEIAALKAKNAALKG

4H32-AA = target: T29, 4H32-AA
T29 chain: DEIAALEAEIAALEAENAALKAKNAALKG

4H3782-AA = target: T30, 4H3782-AA; details: mean of both orientations
T30 chain: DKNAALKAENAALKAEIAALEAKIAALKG

4H3595-AA = target: T31, 4H3595-AA; details: mean of both orientations
T31 chain: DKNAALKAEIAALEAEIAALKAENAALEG

4H3094-AA = target: T32, 4H3094-AA; details: mean of both orientations
T32 chain: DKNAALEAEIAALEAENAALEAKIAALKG

4H380-AA = target: T33, 4H380-AA; details: mean of both orientations
T33 chain: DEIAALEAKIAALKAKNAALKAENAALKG

4H3129-AA = target: T34, 4H3129-AA; details: mean of both orientations
T34 chain: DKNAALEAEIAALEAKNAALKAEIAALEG

4H3449-AA = target: T35, 4H3449-AA; details: mean of both orientations
T35 chain: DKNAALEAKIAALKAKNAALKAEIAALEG

4H3629-AA = target: T36, 4H3629-AA; details: mean of both orientations
T36 chain: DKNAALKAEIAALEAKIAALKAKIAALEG

4H3969-AA = target: T37, 4H3969-AA; details: mean of both orientations
T37 chain: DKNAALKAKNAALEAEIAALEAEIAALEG

4H483-AA = target: T38, 4H483-AA; details: mean of both orientations
T38 chain: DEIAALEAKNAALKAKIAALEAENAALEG

P2-AA-12HGe-S = target: T39, P2-AA-12HGe-S; details: mean of both orientations
T39 chain: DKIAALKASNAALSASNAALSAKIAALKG

P2-AA-12HGe-H = target: T40, P2-AA-12HGe-H; details: mean of both orientations
T40 chain: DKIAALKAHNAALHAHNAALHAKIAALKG

P2-AA-12HGe-R = target: T41, P2-AA-12HGe-R; details: mean of both orientations
T41 chain: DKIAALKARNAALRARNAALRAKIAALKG

P2-AA-12HGe-D = target: T42, P2-AA-12HGe-D
T42 chain: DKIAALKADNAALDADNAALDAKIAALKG

P2-AA-12HGe-T = target: T43, P2-AA-12HGe-T; details: mean of both orientations
T43 chain: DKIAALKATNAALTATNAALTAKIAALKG

P2-AA = target: T44, P2-AA; details: mean of both orientations
T44 chain: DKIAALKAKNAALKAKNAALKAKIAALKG

P2-AA-12HGe-A = target: T45, P2-AA-12HGe-A; details: mean of both orientations
T45 chain: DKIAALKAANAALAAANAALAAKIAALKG

P2-AA-12HGe-W = target: T46, P2-AA-12HGe-W; details: mean of both orientations
T46 chain: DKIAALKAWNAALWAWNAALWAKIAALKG

P2-AA-12HGe-Q = target: T47, P2-AA-12HGe-Q; details: mean of both orientations
T47 chain: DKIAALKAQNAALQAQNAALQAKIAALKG

P2-AA-12HGe-M = target: T48, P2-AA-12HGe-M; details: mean of both orientations
T48 chain: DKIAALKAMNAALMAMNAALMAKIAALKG

P2-AA-12HGe-E = target: T49, P2-AA-12HGe-E; details: mean of both orientations
T49 chain: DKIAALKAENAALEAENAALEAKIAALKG

4H_GCN4, sequence (chain, as listed by the source): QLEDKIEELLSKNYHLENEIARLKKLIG

Binder: DEIAALEARNAALRARNAALRAEIAALEG [P1-AA-12HGe-R]
- interaction score (P2-AA-12HGe-S): 1.19
- interaction score (P2-AA-12HGe-H): -0.986
- interaction score (P2-AA-12HGe-R): -0.893
- interaction score (P2-AA-12HGe-D; mean of both orientations): 1.05
- interaction score (P2-AA-12HGe-T): 0.3
- interaction score (P2-AA): -0.71
- interaction score (P2-AA-12HGe-A): 1.68
- interaction score (P2-AA-12HGe-W): -1.15
- interaction score (P2-AA-12HGe-Q): 1.28
- interaction score (P2-AA-12HGe-M): -0.0699
- interaction score (P2-AA-12HGe-E): 2.08

Binder: DEIAALEASNAALSASNAALSAEIAALEG [P1-AA-12HGe-S]
- interaction score (P2-AA-12HGe-S): -1.39
- interaction score (P2-AA-12HGe-H): -1.82
- interaction score (P2-AA-12HGe-R): 1
- interaction score (P2-AA-12HGe-D): -1.82
- interaction score (P2-AA-12HGe-T): -1.11
- interaction score (P2-AA): 0.744
- interaction score (P2-AA-12HGe-A): -0.678
- interaction score (P2-AA-12HGe-W): -1.58
- interaction score (P2-AA-12HGe-Q): 0.702
- interaction score (P2-AA-12HGe-M): -0.332
- interaction score (P2-AA-12HGe-E): 0.07

Binder: DEIAALEADNAALDADNAALDAEIAALEG [P1-AA-12HGe-D]
- interaction score (P2-AA-12HGe-S): -1.99
- interaction score (P2-AA-12HGe-H): -1.41
- interaction score (P2-AA-12HGe-R): 1.33
- interaction score (P2-AA-12HGe-D; mean of both orientations): -1.75
- interaction score (P2-AA-12HGe-T): -1.52
- interaction score (P2-AA): 1.36
- interaction score (P2-AA-12HGe-A): -2.7
- interaction score (P2-AA-12HGe-W): -2.14
- interaction score (P2-AA-12HGe-Q): -1.62
- interaction score (P2-AA-12HGe-M): -2.19
- interaction score (P2-AA-12HGe-E): -1.55

More lines, now with the values ahead:

- interaction score (O11-AA): -0.88
- interaction score (O13-AA): 0.869
- interaction score (4H_BCR): -0.845
- interaction score (4H3587-AA; mean of both orientations): -1.2
- interaction score (4H510-AA): 1.23
- interaction score (4H3625-AA): -0.713
- interaction score (4H384-AA): 1.88
- interaction score (4H3905-AA): -0.0231
- interaction score (4H_APH): -1.22
- interaction score (4H4038-AA): 2.08
- interaction score (4H43-AA): -0.783
- interaction score (4H451-AA): -0.516
- interaction score (GCN2_T): -1.48
- interaction score (4H337-AA): -0.119
- interaction score (4H3590-AA): 0.707
- interaction score (4H_GCN4): -1.01
- interaction score (O14-AA): 1.85
Binder: DEIAALEAKIAALKAENAALEAEIAALEG [4H337-AA]

- interaction score (4H63-AA): -1.15
- interaction score (4H324-AA): -0.645
- interaction score (O11-AA): 0.334
- interaction score (4H446-AA): -0.416
- interaction score (4H3619-AA): -0.754
- interaction score (4H3777-AA): -0.0348
- interaction score (O13-AA): -1.55
- interaction score (4H3915-AA): -1.52
- interaction score (4H_BCR): -2.02
- interaction score (4H432-AA): -0.00195
- interaction score (4H3939-AA): -0.638
- interaction score (4H3587-AA): -0.69
- interaction score (4H3049-AA): -0.619
- interaction score (4H510-AA): -1.55
- interaction score (4H3625-AA): -0.0279
- interaction score (4H384-AA; mean of both orientations): -1.42
- interaction score (4H3974-AA): 1.52
- interaction score (4H_APH): -1.8
- interaction score (4H341-AA): 0.355
- interaction score (4H3414-AA): -0.414
- interaction score (4H4038-AA): 1.1
- interaction score (4H464-AA): 0.452
- interaction score (4H32-AA): 0.0606
- interaction score (4H3782-AA): 1.57
- interaction score (4H43-AA): 1.67
- interaction score (4H3595-AA): -1.01
- interaction score (4H3094-AA): 1.63
- interaction score (4H451-AA): -1.18
- interaction score (4H380-AA): -1.68
- interaction score (GCN2_T; mean of both orientations): -0.776
- interaction score (4H337-AA; mean of both orientations): 1.59
- interaction score (4H3129-AA): -1.06
- interaction score (4H3449-AA): -1.67
- interaction score (4H3590-AA): 1.4
- interaction score (4H3629-AA): -0.842
- interaction score (4H_GCN4): -0.802
- interaction score (4H3969-AA): -0.09
- interaction score (4H483-AA): -1.48
- interaction score (O14-AA): 1.66
Binder: DKIAALKAKNAALKAKIAALKAEIAALEG [4H3049-AA]

- interaction score (P2-AA-12HGe-S): -1.06
- interaction score (P2-AA-12HGe-H): -1.21
- interaction score (P2-AA-12HGe-R): -0.521
- interaction score (P2-AA-12HGe-D; mean of both orientations): -1.65
- interaction score (P2-AA-12HGe-T): -0.661
- interaction score (P2-AA): -0.194
- interaction score (P2-AA-12HGe-A): -0.289
- interaction score (P2-AA-12HGe-W): -0.349
- interaction score (P2-AA-12HGe-Q): 0.637
- interaction score (P2-AA-12HGe-M): 1.77
- interaction score (P2-AA-12HGe-E): 2.36
Binder: DEIAALEAYNAALYAYNAALYAEIAALEG [P1-AA-12HGe-Y]
